Laboratory results published in patent US20110136740A1 (Stanford University, published 2011).
Ends that are not written are not given here.

B1: engineered AgRP peptide 2bA (soluble, N-terminal FLAG tag and C-terminal hexahistidine tag) (peptide)
chain: DYKDDDDKGCVRLHESCLGQQVPCCDPAATCYCLKRGDWKGKCYCRHHHHHH
modifications: ends and bridges not checked; cysteine pairing not given here
notes: also called clone 2bA; αIIbβ3-specific peptide 2bA
B2: engineered AgRP peptide 2bJ (soluble, N-terminal FLAG tag and C-terminal hexahistidine tag) (peptide)
chain: DYKDDDDKGCVRLHESCLGQQVPCCDPAATCYCNKRGDWRSKCYCRHHHHHH
modifications: ends and bridges not checked; cysteine pairing not given here
notes: also called clone 2bJ; αIIbβ3-specific peptide 2bJ
B3: engineered AgRP peptide 2bO (soluble, N-terminal FLAG tag and C-terminal hexahistidine tag) (peptide)
chain: DYKDDDDKGCVRLHESCLGQQVPCCDPAATCYCKKRGDWKERCYCRHHHHHH
modifications: ends and bridges not checked; cysteine pairing not given here
notes: also called clone 2bO; αIIbβ3-specific peptide 2bO
B4: engineered AgRP peptide b3I (soluble, N-terminal FLAG tag and C-terminal hexahistidine tag) (peptide)
chain: DYKDDDDKGCVRLHESCLGQQVPCCDPAATCYCRGRGDVKLRCYCRHHHHHH
modifications: ends and bridges not checked; cysteine pairing not given here
notes: also called clone b3I; β3-specific peptide b3I
B5: engineered AgRP peptide b3A (soluble, N-terminal FLAG tag and C-terminal hexahistidine tag) (peptide)
chain: DYKDDDDKGCVRLHESCLGQQVPCCDPAATCYCVGRGDVRRKCYCRHHHHHH
modifications: ends and bridges not checked; cysteine pairing not given here
notes: also called clone b3A; β3-specific peptide b3A

How the values were obtained:
[1] = target: αIIbβ3 integrin on human platelets (human) (UniProt P08514); assay: cell-based or functional assay
[2] = target: T1, αIIbβ3 integrin expressed on K562-αIIbβ3 cells (UniProt P08514 32-1039; P05106 27-788); assay: flow cytometry, peptide titrated on K562-αIIbβ3 cells, anti-His detection
T1 construct: whole, on cells; also called cell surface expressed αIIbβ3 integrin; GPIIb-IIIa

[3] = target: T2, αvβ3 integrin expressed on K562-αvβ3 cells (UniProt P06756 31-1048; P05106 27-788); assay: flow cytometry, direct binding to K562-αvβ3 cells, anti-His detection
T2 construct: whole, on cells

[4] = target: T3, αvβ5 integrin expressed on K562-αvβ5 cells (UniProt P06756 31-1048; P18084 24-799); assay: flow cytometry, direct binding to K562-αvβ5 cells
T3 construct: whole, on cells

[5] = target: αIIbβ3 integrin on human platelets (human, UniProt P08514 32-1039; P05106 27-788); assay: cell-based or functional assay
[6] = target: T4, α5β1 integrin naturally expressed on wild-type K562 cells (UniProt P08648 42-1049; P05556 21-798); assay: flow cytometry, direct binding to wild-type K562 cells
T4 construct: whole, on cells

[7] = target: T2, αvβ3 integrin expressed on K562-αvβ3 …; assay: flow cytometry, peptide titrated on K562-αvβ3 cells, anti-His detection
[8] = target: T2, αvβ3 integrin expressed on K562-αvβ3 …; assay: flow cytometry, peptide titrated on K562-αvβ3 cells

T2 sequence (P06756 31-1048, chain 1 of 2): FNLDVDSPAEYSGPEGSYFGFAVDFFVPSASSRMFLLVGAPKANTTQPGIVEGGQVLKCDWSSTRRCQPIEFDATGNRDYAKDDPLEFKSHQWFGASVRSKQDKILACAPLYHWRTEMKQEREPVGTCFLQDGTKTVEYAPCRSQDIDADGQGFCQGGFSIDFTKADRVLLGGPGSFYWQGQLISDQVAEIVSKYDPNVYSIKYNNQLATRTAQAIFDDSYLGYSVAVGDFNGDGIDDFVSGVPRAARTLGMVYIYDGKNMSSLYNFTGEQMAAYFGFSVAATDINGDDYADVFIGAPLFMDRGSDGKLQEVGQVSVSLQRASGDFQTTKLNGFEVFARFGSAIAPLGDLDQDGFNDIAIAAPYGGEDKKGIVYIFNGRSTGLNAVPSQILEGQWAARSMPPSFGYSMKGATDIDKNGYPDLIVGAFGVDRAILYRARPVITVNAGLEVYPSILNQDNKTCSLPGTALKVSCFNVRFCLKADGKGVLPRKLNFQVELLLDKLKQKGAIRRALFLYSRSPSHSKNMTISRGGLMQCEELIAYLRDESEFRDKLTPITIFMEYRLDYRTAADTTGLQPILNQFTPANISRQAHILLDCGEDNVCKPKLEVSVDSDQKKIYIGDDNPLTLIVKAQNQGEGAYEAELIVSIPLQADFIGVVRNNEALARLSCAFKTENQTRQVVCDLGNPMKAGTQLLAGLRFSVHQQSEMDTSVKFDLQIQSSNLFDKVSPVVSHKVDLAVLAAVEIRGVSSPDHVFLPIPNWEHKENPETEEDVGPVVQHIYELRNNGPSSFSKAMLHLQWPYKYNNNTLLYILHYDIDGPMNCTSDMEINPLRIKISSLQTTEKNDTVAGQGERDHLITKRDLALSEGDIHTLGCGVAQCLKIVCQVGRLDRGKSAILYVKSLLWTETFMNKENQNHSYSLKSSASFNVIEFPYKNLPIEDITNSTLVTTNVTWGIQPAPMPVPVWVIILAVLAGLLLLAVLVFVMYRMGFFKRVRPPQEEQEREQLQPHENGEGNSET
T2 sequence (P05106 27-788, chain 2 of 2): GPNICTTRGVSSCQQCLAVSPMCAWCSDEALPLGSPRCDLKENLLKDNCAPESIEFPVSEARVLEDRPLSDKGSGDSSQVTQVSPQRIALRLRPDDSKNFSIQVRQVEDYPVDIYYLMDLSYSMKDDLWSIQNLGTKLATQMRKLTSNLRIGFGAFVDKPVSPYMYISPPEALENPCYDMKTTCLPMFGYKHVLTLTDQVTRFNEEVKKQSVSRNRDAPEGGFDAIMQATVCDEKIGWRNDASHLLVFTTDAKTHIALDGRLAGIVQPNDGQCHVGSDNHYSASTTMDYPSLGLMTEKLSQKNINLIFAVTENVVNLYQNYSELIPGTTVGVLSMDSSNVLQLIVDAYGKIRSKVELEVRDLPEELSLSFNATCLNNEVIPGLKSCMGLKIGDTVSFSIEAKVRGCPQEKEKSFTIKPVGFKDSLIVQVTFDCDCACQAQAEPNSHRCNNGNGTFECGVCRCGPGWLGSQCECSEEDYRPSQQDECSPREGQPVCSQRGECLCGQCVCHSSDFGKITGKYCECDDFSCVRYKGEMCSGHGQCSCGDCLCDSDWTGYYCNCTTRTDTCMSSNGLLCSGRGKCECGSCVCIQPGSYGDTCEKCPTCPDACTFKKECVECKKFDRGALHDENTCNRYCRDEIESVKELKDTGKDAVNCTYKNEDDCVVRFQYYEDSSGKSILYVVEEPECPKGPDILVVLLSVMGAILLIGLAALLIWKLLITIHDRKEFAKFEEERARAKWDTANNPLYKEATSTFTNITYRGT
T3 sequence (P06756 31-1048, chain 1 of 2): as the sequence (P06756 31-1048, chain 1 of 2) above
T3 sequence (P18084 24-799, chain 2 of 2): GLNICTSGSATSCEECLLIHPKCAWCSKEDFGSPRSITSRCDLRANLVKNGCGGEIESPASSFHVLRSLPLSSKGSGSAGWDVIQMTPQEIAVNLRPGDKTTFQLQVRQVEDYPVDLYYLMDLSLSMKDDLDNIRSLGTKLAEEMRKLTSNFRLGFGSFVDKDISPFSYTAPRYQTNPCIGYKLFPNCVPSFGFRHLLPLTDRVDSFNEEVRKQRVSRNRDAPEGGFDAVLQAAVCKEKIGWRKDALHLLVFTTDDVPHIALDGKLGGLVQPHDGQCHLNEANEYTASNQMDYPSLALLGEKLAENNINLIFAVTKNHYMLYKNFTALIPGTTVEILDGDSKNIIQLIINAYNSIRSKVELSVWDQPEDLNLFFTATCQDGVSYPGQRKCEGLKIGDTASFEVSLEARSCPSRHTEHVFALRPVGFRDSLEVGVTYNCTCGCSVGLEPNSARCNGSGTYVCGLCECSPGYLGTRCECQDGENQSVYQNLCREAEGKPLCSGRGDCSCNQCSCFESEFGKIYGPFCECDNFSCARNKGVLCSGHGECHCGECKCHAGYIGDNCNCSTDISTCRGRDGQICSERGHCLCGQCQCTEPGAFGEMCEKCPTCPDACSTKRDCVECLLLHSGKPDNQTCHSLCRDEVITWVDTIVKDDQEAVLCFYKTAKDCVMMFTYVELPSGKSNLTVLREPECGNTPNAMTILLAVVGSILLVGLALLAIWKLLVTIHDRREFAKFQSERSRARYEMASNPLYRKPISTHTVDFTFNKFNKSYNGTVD
T4 sequence (P08648 42-1049, chain 1 of 2): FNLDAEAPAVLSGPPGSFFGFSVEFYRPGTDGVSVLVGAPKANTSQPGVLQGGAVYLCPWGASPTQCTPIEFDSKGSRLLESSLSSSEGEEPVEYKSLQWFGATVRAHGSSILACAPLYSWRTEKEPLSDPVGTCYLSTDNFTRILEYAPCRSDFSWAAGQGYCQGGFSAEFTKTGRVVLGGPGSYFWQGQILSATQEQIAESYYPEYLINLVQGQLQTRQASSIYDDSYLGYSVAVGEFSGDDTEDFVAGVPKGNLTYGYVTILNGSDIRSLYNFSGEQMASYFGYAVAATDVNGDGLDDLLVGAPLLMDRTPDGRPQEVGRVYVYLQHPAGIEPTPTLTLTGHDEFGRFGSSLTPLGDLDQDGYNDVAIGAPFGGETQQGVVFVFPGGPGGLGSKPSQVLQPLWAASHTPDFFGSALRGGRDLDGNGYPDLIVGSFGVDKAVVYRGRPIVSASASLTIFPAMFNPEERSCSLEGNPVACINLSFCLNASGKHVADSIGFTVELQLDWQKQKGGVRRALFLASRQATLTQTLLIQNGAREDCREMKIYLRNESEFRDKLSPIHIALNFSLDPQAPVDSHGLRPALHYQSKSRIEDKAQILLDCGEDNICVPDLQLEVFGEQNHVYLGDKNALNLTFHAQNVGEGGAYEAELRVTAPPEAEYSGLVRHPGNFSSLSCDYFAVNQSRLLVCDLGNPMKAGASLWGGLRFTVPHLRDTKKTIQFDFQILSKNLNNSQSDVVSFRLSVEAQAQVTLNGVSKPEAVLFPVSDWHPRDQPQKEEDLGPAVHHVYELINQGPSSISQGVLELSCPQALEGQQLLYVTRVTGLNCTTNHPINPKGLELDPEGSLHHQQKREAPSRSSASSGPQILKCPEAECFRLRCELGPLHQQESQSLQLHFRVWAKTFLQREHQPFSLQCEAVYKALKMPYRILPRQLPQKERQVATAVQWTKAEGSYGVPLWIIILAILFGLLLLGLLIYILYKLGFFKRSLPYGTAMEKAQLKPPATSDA
T4 sequence (P05556 21-798, chain 2 of 2): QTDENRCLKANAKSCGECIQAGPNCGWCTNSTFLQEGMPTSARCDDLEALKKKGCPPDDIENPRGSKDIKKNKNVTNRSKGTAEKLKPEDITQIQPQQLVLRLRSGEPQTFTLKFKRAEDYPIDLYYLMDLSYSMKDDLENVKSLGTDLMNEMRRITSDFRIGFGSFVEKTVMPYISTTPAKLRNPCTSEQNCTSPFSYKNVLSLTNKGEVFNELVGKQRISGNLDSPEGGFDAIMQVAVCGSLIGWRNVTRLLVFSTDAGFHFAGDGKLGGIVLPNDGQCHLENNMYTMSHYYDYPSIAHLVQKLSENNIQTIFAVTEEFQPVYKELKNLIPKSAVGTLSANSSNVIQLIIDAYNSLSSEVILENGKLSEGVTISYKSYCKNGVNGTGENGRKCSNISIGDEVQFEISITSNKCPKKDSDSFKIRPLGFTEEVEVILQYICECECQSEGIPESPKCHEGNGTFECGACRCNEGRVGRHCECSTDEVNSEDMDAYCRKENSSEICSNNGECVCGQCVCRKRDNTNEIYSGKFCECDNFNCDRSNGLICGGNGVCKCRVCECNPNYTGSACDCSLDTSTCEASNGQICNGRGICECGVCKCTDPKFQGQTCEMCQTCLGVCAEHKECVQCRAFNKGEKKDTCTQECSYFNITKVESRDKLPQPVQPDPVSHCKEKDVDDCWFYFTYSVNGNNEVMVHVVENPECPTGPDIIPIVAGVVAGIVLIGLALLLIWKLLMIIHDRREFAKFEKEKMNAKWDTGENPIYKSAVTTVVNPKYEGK

| Molecule | aggregation (IC50; nM), human platelets [1] [nM] | inhibition of ADP-induced platelet aggregation, IC50 [1] [nM] | Kd [2] [nM] | binding result [3] | binding result [4] | aggregation (IC50; nM), human platelets [5] [nM] | binding result [6] | Kd [7] [nM] | Kd [8] [nM] |
| --- | --- | --- | --- | --- | --- | --- | --- | --- | --- |
| eptifibatide (peptide) | 94 | 80 | – | – | – | – | – | – | – |
| B1 | – | – | 87 | no binding (tested: 1 µM) | no binding (tested: 1 µM) | 72 | no binding (tested: 1 µM) | – | – |
| B2 | – | – | 59 | no binding (tested: 1 µM) | no binding (tested: 1 µM) | 91 | no binding (tested: 1 µM) | – | – |
| B3 | – | – | 87 | no binding (tested: 1 µM) | no binding (tested: 1 µM) | 110 | no binding (tested: 1 µM) | – | – |
| B4 | – | – | 70 | – | no binding (tested: 1 µM) | 66 | no binding (tested: 1 µM) | 28 | ~25 |
| B5 | – | – | 42 | – | no binding (tested: 1 µM) | 50 | no binding (tested: 1 µM) | 23 | ~25 |
